For experiment [1], the target named is T1, human neutrophil IL-8 receptor subtype B (huIL8Rb) (human, UniProt P25025). Kind of experiment: competition with 0.5 nM 125I-labeled IL-8 on CHO cells expressing huIL8Rb; "NC" indicates no competition. As to the method:
(§1) receptor subtype B (huIL8Rb), was used in binding assays to test mutant chemokine binding. Approximately 5×10^3 cells were plated in the wells of a 96 well plate and grown for 2 to 3 days. The medium was replaced with phosphate-buffered saline (PBS) supplemented with 0.5% BSA (PBS/BSA), 0.5 nM ^125I-labeled IL-8, and increasing concentrations of the various unlabeled chemokines. The plates were incubated on ice for 90 minutes, the binding mixture was removed, and the cells were washed three times with ice-cold PBS/BSA. The cells were removed from the plates with trypsin-EDTA (Gibco), and the radioactivity of the entire contents of the well determined by gamma counting. Binding of each chemokine to untransfected cells, or binding in the presence of 2 μM unlabeled IL-8, was determined and the value obtained used as the background value. Binding data was plotted as percent of mean specific binding (total binding minus background/specific binding with no competitor). […] "NC" indicates no competition.

Experiment [2] has as its target T1, human neutrophil IL-8 receptor subtype …. Kind of experiment: competition with 0.5 nM 125I-labeled IL-8 on CHO cells expressing huIL8Rb. As to the method:
as §1

B1: wild-type platelet factor 4 (PF4) (ligand)
chain: EAEEDGDLQCLCVKTTSQVRPRHITSLEVIKAGPHCPTAQLIATLKNGRKICLDLQAPLYKKIIKKLLES
Regarding B1, the binding result in experiment [1] is listed as “no binding”.

B2: PF4M1 (ligand)
chain: EAEEDGDLRCLCVKTTSQVRPRHITSLEVIKAGPHCPTAQLIATLKNGRKICLDLQAPLYKKIIKKLLES
In turn, B2 gave a Ki in experiment [2] of 839 nM.

B3: PF4M2 (ligand)
chain: MSAKELRCQCVKTTSQVRPRHITSLEVIKAGPHCPTAQLIATLKNGRKICLDLQAPLYKKIIKKLLES
Molecule B3 yielded a Ki in experiment [2] of 52 nM.

For orientation: Ki means the dissociation constant of the complex between target and ligand, obtained from inhibition or displacement.

These data come from US5789539, “Chemokine-like proteins and methods of use” (Repligen Corporation, dated 1998).
